This passage reports Kd, koff and kon results from paper PMC10663500, “High-throughput analysis system of interaction kinetics for data-driven antibody design” (Scientific Reports, 2023).

B1: toripalimab Fab H.K65A (Fab, V domains shown)
VH: QGQLVQSGAEVKKPGASVKVSCKASGYTFTDYEMHWVRQAPIHGLEWIGVIESETGGTAYNQKFAGRVTITADKSTSTAYMELSSLRSEDTAVYYCAREGITTVATTYYWYFDVWGQGTTVTVSS
VL: DVVMTQSPLSLPVTLGQPASISCRSSQSIVHSNGNTYLEWYLQKPGQSPQLLIYKVSNRFSGVPDRFSGSGSGTDFTLKISRVEAEDVGVYYCFQGSHVPLTFGQGTKLEIK
notes: heavy chain of Sm3 with this change; numbers count from the chain's first residue; as the light chain of Sm3; source: Brevibacillus, culture supernatant (ammonium sulfate precipitate); not shown: 6xHis, C-terminal, kept; 6xHN, C-terminal, kept
B2: toripalimab Fab H.Y109A (Fab, V domains shown)
VH: B1 VH with A65K, Y109A
VL: B1 VL
notes: as for B1
B3: toripalimab Fab H.T106Y (Fab, V domains shown)
VH: B1 VH with A65K, T106Y
VL: B1 VL
notes: as for B1
B4: toripalimab Fab L.R24A (Fab, V domains shown)
VH: B1 VH with A65K
VL: B1 VL with R24A
notes: as the heavy chain of Sm3; light chain of Sm3 with this change; numbers count from the chain's first residue; source: Brevibacillus, culture supernatant (ammonium sulfate precipitate); not shown: 6xHis, C-terminal, kept; 6xHN, C-terminal, kept
B5: toripalimab Fab L.R24Y (Fab, V domains shown)
VH: B1 VH with A65K
VL: B1 VL with R24Y
notes: as for B4
B6: toripalimab Fab H.V114Y (Fab, V domains shown)
VH: B1 VH with A65K, V114Y
VL: B1 VL
notes: as for B1
B7: toripalimab Fab H.E33A (Fab, V domains shown)
VH: B1 VH with E33A, A65K
VL: B1 VL
notes: as for B1
B8: toripalimab Fab H.T107Y (Fab, V domains shown)
VH: B1 VH with A65K, T107Y
VL: B1 VL
notes: as for B1
B9: toripalimab Fab H.M34A (Fab, V domains shown)
VH: B1 VH with M34A, A65K
VL: B1 VL
notes: as for B1
B10: toripalimab Fab H.V114A (Fab, V domains shown)
VH: B1 VH with A65K, V114A
VL: B1 VL
notes: as for B1
B11: toripalimab Fab H.T107A (Fab, V domains shown)
VH: B1 VH with A65K, T107A
VL: B1 VL
notes: as for B1
B12: toripalimab Fab H.F112Y (Fab, V domains shown)
VH: B1 VH with A65K, F112Y
VL: B1 VL
notes: as for B1
B13: toripalimab Fab H.T106A (Fab, V domains shown)
VH: B1 VH with A65K, T106A
VL: B1 VL
notes: as for B1
B14: toripalimab Fab H.K65Y (Fab, V domains shown)
VH: B1 VH with A65Y
VL: B1 VL
notes: as for B1
B15: toripalimab Fab H.A105Y (Fab, V domains shown)
VH: B1 VH with A65K, A105Y
VL: B1 VL
notes: as for B1
B16: toripalimab Fab H.G66A (Fab, V domains shown)
VH: B1 VH with A65K, G66A
VL: B1 VL
notes: as for B1
B17: toripalimab Fab H.V104A (Fab, V domains shown)
VH: B1 VH with A65K, V104A
VL: B1 VL
notes: as for B1
B18: toripalimab Fab H.G66Y (Fab, V domains shown)
VH: B1 VH with A65K, G66Y
VL: B1 VL
notes: as for B1
B19: toripalimab Fab H.G100A (Fab, V domains shown)
VH: B1 VH with A65K, G100A
VL: B1 VL
notes: as for B1
B20: toripalimab Fab H.W110Y (Fab, V domains shown)
VH: B1 VH with A65K, W110Y
VL: B1 VL
notes: as for B1
B21: toripalimab Fab H.V104Y (Fab, V domains shown)
VH: B1 VH with A65K, V104Y
VL: B1 VL
notes: as for B1

Numbering of substitutions follows the chain as printed.

The first experiment concerns the target T1, mouse programmed cell death protein 1 Fc fusion protein (mPD-1-Fc), mPD-1 C60S (aa 25-167) (Mus musculus, UniProt Q02242, stabilised).
T1 construct: not cleaved; source: Expi293F, purified (Protein A, SEC; dimeric fraction); not shown: Fc (human), C-terminal, kept
Kind of experiment: SPR; Carterra LSA; Fab from the ammonium sulfate precipitate of the culture supernatant immobilised on a NiHC200M chip; hPD-1 (1-1024 nM) or mPD-1-Fc (4-1024 nM) as analyte, fourfold dilution series, no regeneration; HBS-EP pH 7.4, 25 °C; medians over the spots of a construct, KD = koff/kon. The following applies: one partner purified. Put shortly:
(§1)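 Human PD-1 (1–1024 nM) or mouse PD-1-Fc (4–1024 nM), in fourfold series, was flowed without regeneration over Fabs captured in duplicate on a NiHC200M chip (Carterra LSA, 25 °C), using 10 min association and 5 min dissociation. The Fabs had been recovered from Brevibacillus culture supernatants by ammonium sulfate precipitation and redissolved in HBS-EP. For binding constants, KD was defined as koff/kon from per-construct medians, with rates fitted by the kdka model under slow- or fast-dissociation settings (best fit) and unconfirmed binders set to kon 10^3 […] and koff 10^−2 s^−1.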
For orientation: SPR reads the build-up and loss of mass on a sensor chip optically.
The molecule B1 yielded a Kd of 257 nM, a koff of 0.00911 s⁻¹ and a kon of 35400 M⁻¹ s⁻¹.

For the molecule B2, binding was characterised by a dissociation constant (Kd) of 49.7 nM, the koff was 0.00179 s⁻¹ and the kon came to 36000 M⁻¹ s⁻¹.

The molecule B3 yielded a Kd of 140 nM, a koff of 0.00601 s⁻¹ and a kon of 43000 M⁻¹ s⁻¹.

B4: binding was characterised by a dissociation constant (Kd) of 198 nM, the dissociation rate constant (koff) is 0.0079 s⁻¹ and the kon turned out to be 39900 M⁻¹ s⁻¹.

In turn, B5 came in with a Kd of 133 nM, a koff of 0.0047 s⁻¹ and a kon of 35400 M⁻¹ s⁻¹.

As to B6, binding was put at a Kd of 235 nM, the koff worked out at 0.00887 s⁻¹ and the kon was determined as 37800 M⁻¹ s⁻¹.

Take B7: the Kd is 103 nM, the koff stood at 0.00372 s⁻¹ and the on-rate (kon) came out at 36200 M⁻¹ s⁻¹.

For the molecule B8, binding was put at a Kd of 137 nM, the koff worked out at 0.00432 s⁻¹ and the kon turned out to be 31600 M⁻¹ s⁻¹.

In turn, B9 showed a Kd of 153 nM, a koff of 0.0068 s⁻¹ and a kon of 44300 M⁻¹ s⁻¹.

In turn, B10 registered a Kd of 201 nM, a koff of 0.00764 s⁻¹ and a kon of 38100 M⁻¹ s⁻¹.

B11 registered a Kd of 232 nM, a koff of 0.00703 s⁻¹ and a kon of 30300 M⁻¹ s⁻¹.

B12: binding was put at a Kd of 59.7 nM, the koff is 0.00308 s⁻¹ and the kon is 51700 M⁻¹ s⁻¹.

The molecule B13 had a Kd of 107 nM, a koff of 0.00423 s⁻¹ and a kon of 39700 M⁻¹ s⁻¹.

B14 displayed a Kd of 299 nM, a koff of 0.012 s⁻¹ and an on-rate constant (kon) of 40300 M⁻¹ s⁻¹.

For the molecule B15, binding was put at a Kd of 95.5 nM, the koff turned out to be 0.00349 s⁻¹ and the kon was 36500 M⁻¹ s⁻¹.

B16 showed a Kd of 223 nM, a koff of 0.00674 s⁻¹ and a kon of 30200 M⁻¹ s⁻¹.

With B17, the affinity, expressed as Kd, was 81.5 nM; the koff amounted to 0.00354 s⁻¹; the kon was 43400 M⁻¹ s⁻¹.

For B18, the affinity, expressed as Kd, was 393 nM; the koff turned out to be 0.0111 s⁻¹; the kon was determined as 28100 M⁻¹ s⁻¹.

As to B19, the Kd worked out at 464 nM, the koff worked out at 0.0353 s⁻¹ and the kon was 76100 M⁻¹ s⁻¹.

For the molecule B20, the affinity, expressed as Kd, was 166 nM; the koff was 0.00571 s⁻¹; the kon was 34500 M⁻¹ s⁻¹.

With B21, the Kd was determined as 96.2 nM, the koff turned out to be 0.00366 s⁻¹ and the kon came to 38000 M⁻¹ s⁻¹.

In the next experiment the target is T2, human programmed cell death protein 1 (hPD-1) C93S (aa 24-167) (Homo sapiens, UniProt Q15116, C93S).
T2 construct: made as a fusion with a TEV site and human Fc; the Fc was cut off with TEV protease; source: Expi293F, purified (Protein A, TEV cleavage of Fc, SEC; monomer fractions); not shown: Fc (human), C-terminal, cleaved
T2 sequence (Q15116 24-167 C93S): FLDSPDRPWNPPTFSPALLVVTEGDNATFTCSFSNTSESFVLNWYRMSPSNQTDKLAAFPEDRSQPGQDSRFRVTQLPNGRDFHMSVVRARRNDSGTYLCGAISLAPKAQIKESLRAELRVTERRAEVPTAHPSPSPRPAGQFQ
The experiment is described as above. To be noted: one partner purified. Put shortly: as §1
As to B1, the Kd is < 1.5 nM, the koff is < 1e-05 s⁻¹ and the kon was determined as 6670 M⁻¹ s⁻¹.

Molecule B2 yielded a Kd of 0.608 nM, a koff of 1.41e-05 s⁻¹ and a kon of 23200 M⁻¹ s⁻¹.

B3 registered a Kd of 0.833 nM, a koff of 1.75e-05 s⁻¹ and a kon of 21000 M⁻¹ s⁻¹.

For the molecule B4, the Kd is < 0.696 nM, the koff is < 1e-05 s⁻¹ and the kon came out at 14400 M⁻¹ s⁻¹.

For B5, the Kd is < 1.44 nM, the koff was < 1e-05 s⁻¹ and the kon is 6930 M⁻¹ s⁻¹.

In turn, B6 came in with a Kd of 1.23 nM, a koff of 2.39e-05 s⁻¹ and a kon of 19400 M⁻¹ s⁻¹.

B7 registered a dissociation constant Kd of 1.37 nM, a koff of 1.31e-05 s⁻¹ and a kon of 9540 M⁻¹ s⁻¹.

Regarding B8, the Kd is < 0.315 nM, the off-rate constant (koff) was < 1e-05 s⁻¹ and the kon was 31700 M⁻¹ s⁻¹.

The molecule B9 registered a Kd of 0.968 nM, a koff of 3.28e-05 s⁻¹ and a kon of 33900 M⁻¹ s⁻¹.

In the case of B10, the Kd is < 1.5 nM, the koff is < 1e-05 s⁻¹ and the kon is 6670 M⁻¹ s⁻¹.

Take B11: the Kd is < 1.53 nM, the koff was < 1e-05 s⁻¹ and the kon was 6520 M⁻¹ s⁻¹.

Turning to B12, the Kd is < 0.731 nM, the koff is < 1e-05 s⁻¹ and the kon came to 13700 M⁻¹ s⁻¹.

The molecule B13 returned a Kd of 0.743 nM, a koff of 1.56e-05 s⁻¹ and a kon of 21000 M⁻¹ s⁻¹.

On to B14, for which binding was put at a Kd of 1.14 nM, the koff is 1.86e-05 s⁻¹ and the kon was 16300 M⁻¹ s⁻¹.

Take B15: the Kd is < 0.492 nM, the koff is < 1e-05 s⁻¹ and the kon was found to be 20300 M⁻¹ s⁻¹.

Turning to B16, the Kd is < 1.56 nM, the koff is < 1e-05 s⁻¹ and the kon amounted to 6410 M⁻¹ s⁻¹.

B17 registered a Kd of 4.51 nM, a koff of 8.98e-05 s⁻¹ and a kon of 19900 M⁻¹ s⁻¹.

Consider B18, for which the Kd was < 0.85 nM, the koff is < 1e-05 s⁻¹ and the kon is 11800 M⁻¹ s⁻¹.

B19: the Kd turned out to be 0.593 nM, the koff is 1.42e-05 s⁻¹ and the kon is 23900 M⁻¹ s⁻¹.

In the case of B20, the Kd is < 1.51 nM, the koff is < 1e-05 s⁻¹ and the kon was found to be 6610 M⁻¹ s⁻¹.

Regarding B21, binding was put at a Kd of 1.17 nM, the koff was 1.81e-05 s⁻¹ and the kon was 15500 M⁻¹ s⁻¹.

A word on the Kd: it is the equilibrium constant for the complex coming apart. As usually defined, the koff is the rate constant with which the complex falls apart. Lower therefore signals a long-lived complex. The kon is a measure of how fast the partners come together. A low value points to slower complex formation.
